This test has as its target T1, human CD73 (huCD73) protein, antigen of the Biacore assay (human, UniProt P21589 27-547, limits assumed).
T1 construct: also called human CD73 antigen
T1 sequence (looked up): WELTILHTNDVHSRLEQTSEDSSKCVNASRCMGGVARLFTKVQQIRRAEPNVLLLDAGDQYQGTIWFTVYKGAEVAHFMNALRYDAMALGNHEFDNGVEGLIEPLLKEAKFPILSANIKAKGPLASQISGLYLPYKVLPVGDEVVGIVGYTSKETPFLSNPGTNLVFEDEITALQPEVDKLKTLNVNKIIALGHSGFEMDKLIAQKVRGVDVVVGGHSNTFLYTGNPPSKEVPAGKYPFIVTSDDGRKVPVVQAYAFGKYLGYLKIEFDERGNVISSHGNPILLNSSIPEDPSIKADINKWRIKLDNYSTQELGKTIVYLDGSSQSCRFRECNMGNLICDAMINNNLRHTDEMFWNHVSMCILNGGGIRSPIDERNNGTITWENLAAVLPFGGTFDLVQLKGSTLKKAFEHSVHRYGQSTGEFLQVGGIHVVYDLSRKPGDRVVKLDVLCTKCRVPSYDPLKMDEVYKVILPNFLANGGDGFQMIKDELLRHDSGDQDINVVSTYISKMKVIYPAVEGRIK
Briefly: SPR Biacore T200; antibody captured on Protein A chip, CD73 in flow; 1:1 Langmuir. An excerpt:
In this experiment, Biacore instrument was used to determine the affinity of the humanized anti-CD73 antibodies to be tested with human CD73 (huCD73) and monkey CD73 (cynoCD73).
A certain amount of test antibody was affinity-captured with Protein A biosensing chip (Cat. #29127556, GE), and then a certain concentration of human or monkey CD73 antigen was allowed to flow through the surface of the chip. The reaction signals were detected in real time with Biacore instrument (Biacore T200, GE) to generate a binding and dissociation curve. At the end of each cycle, after the dissociation was completed, the biosensor chip was washed and regenerated with Glycine-HCl, pH1.5 (Cat. #BR-1003-54, GE). The running buffer for the assay was 1×HBS-EP buffer solution (Cat. #BR-1001-88, GE).
The data obtained from the experiment was fitted against (1:1) Langmuir model using GE Biacore T200 Evaluation version 3.0 software, and the affinity values were obtained, as shown in Table 12 and Table 13 for details.

Changes are numbered by the printed parent chain.

B1: Hab127.31a (antibody, V domains shown)
VH: EVQLVQSGAEVKKPGASVKVSCKASGYTFTAYFMNWVRQAPGQGLEWMGRIYHNQGDTFYSQKFKGRVTMTVDKSTSTVYMELSSLRSEDTAVYYCATSYVGDWGQGTTVTVSS
VL: DIQMTQSPSSLSASVGDRVTITCRASQDIGDSLNWLQQKPGGALKRLIYATSSLDSGVPSRFSGSGSGTEYTLTISSLQPEDFATYYCLQYASFPWTFGGGTKVEIK
notes: VL3 + VH1a, HCDR2 hot-spot variant; full-length antibody
Broadly, the Kd is the concentration at which binding is half-saturated. Low values mean tighter binding, high ones weaker binding. As a reminder, the koff is the first-order rate constant of dissociation. The low end stands for a long-lived complex, the high end for a short-lived complex. A word on the kon: it is the rate constant with which the complex forms. A low value points to slower complex formation. Turning to B1, the dissociation constant (Kd) came out at 219 pM, the koff amounted to 4.8e-05 s⁻¹ and the kon was determined as 219000 M⁻¹ s⁻¹.

B2: Hab127.31c (antibody, V domains shown)
VH: B1 VH with Q55T
VL: B1 VL
notes: VL3 + VH1c, HCDR2 hot-spot variant; full-length antibody
B2: the affinity, expressed as Kd, was 205 pM; the dissociation rate constant (koff) worked out at 4.76e-05 s⁻¹; the kon came to 232000 M⁻¹ s⁻¹.

B3: Hab127.31e (antibody, V domains shown)
VH: B1 VH with Q55E
VL: B1 VL
notes: VL3 + VH1e, HCDR2 hot-spot variant; full-length antibody
B3 had a Kd of 212 pM, a koff of 3.75e-05 s⁻¹ and a kon of 177000 M⁻¹ s⁻¹.

B4: Hab127.31f (antibody, V domains shown)
VH: B1 VH with Q55H
VL: B1 VL
notes: VL3 + VH1f, HCDR2 hot-spot variant; full-length antibody
As to B4, the Kd is 193 pM, the koff was 4.33e-05 s⁻¹ and the on-rate constant (kon) was found to be 224000 M⁻¹ s⁻¹.

B5: Hab127.31g (antibody, V domains shown)
VH: B1 VH with N54Q, Q55N, G56V
VL: B1 VL
notes: VL3 + VH1g, HCDR2 hot-spot variant; full-length antibody
Take B5: the Kd was found to be 319 pM, the off-rate constant (koff) came out at 5.18e-05 s⁻¹ and the kon was 163000 M⁻¹ s⁻¹.

B6: Hab127.34 (antibody, V domains shown)
VH: B1 VH with R38M, G44S, M48I, Q55N, V68A, M70L, S84R
VL: B1 VL
notes: VL3 + VH4; recombined with human heavy and light constant regions
Regarding B6, the Kd came to 220 pM, the koff was found to be 3.58e-05 s⁻¹ and the on-rate (kon) turned out to be 163000 M⁻¹ s⁻¹.

B7: Hab127.42 (antibody, V domains shown)
VH: B1 VH with R38M, Q55N
VL: B1 VL with T69S, E70D
notes: VL4 + VH2; recombined with human heavy and light constant regions
For the molecule B7, the equilibrium dissociation constant (Kd) worked out at 166 pM, the koff worked out at 3.94e-05 s⁻¹ and the kon is 238000 M⁻¹ s⁻¹.

B8: Hab127.31h (antibody, V domains shown)
VH: B1 VH with N54L, Q55N, G56V
VL: B1 VL
notes: VL3 + VH1h, HCDR2 hot-spot variant; full-length antibody
Molecule B8 displayed a Kd of 441 pM, a koff of 6.66e-05 s⁻¹ and a kon of 151000 M⁻¹ s⁻¹.

B9: Hab127.33 (antibody, V domains shown)
VH: B1 VH with R38M, M48I, Q55N, V68A, M70L
VL: B1 VL
notes: VL3 + VH3; recombined with human heavy and light constant regions
B9 gave a Kd of 211 pM, a koff of 3.69e-05 s⁻¹ and an on-rate constant (kon) of 175000 M⁻¹ s⁻¹.

B10: Hab127.43 (antibody, V domains shown)
VH: B1 VH with R38M, M48I, Q55N, V68A, M70L
VL: B1 VL with T69S, E70D
notes: VL4 + VH3; recombined with human heavy and light constant regions
B10: the affinity, expressed as Kd, was 150 pM; the koff came to 3.58e-05 s⁻¹; the kon was 239000 M⁻¹ s⁻¹.

B11: Hab127.31b (antibody, V domains shown)
VH: B1 VH with Q55L
VL: B1 VL
notes: VL3 + VH1b, HCDR2 hot-spot variant; full-length antibody
Molecule B11 yielded a Kd of 204 pM, a dissociation rate constant (koff) of 4.48e-05 s⁻¹ and a kon of 220000 M⁻¹ s⁻¹.

B12: Hab127.44 (antibody, V domains shown)
VH: B1 VH with R38M, G44S, M48I, Q55N, V68A, M70L, S84R
VL: B1 VL with T69S, E70D
notes: VL4 + VH4; recombined with human heavy and light constant regions
With B12, binding was characterised by a dissociation constant (Kd) of 180 pM, the koff worked out at 4.15e-05 s⁻¹ and the kon is 230000 M⁻¹ s⁻¹.

B13: Hab127.31i (antibody, V domains shown)
VH: B1 VH with N54H, Q55N, G56V
VL: B1 VL
notes: VL3 + VH1i, HCDR2 hot-spot variant; full-length antibody
For the molecule B13, the Kd came out at 585 pM, the koff worked out at 7.93e-05 s⁻¹ and the kon worked out at 136000 M⁻¹ s⁻¹.

B14: Hab127.41 (antibody, V domains shown)
VH: B1 VH with Q55N
VL: B1 VL with T69S, E70D
notes: VL4 + VH1; recombined with human heavy and light constant regions
Regarding B14, the Kd is 191 pM, the off-rate (koff) came to 4.39e-05 s⁻¹ and the kon is 230000 M⁻¹ s⁻¹.

B15: CH108 (antibody, V domains shown)
VH: QVQLKQSGPGLVQPSQSLSITCTVFGFSLKSYGIQWVRQSPGKGLEWLGVIWSGGSADYNAAFISRLSISKDNSKSQVFFKMNSLQGDDTAIYYCAGQYGSVWGQGTSVTVSS
VL: DIQMTQSPSSLSASLGERVSLTCRASQDIGDRLNWLQQEPDGTIKRLIYATSSLDSGVPKRFSGSRSGSDYSLTISSLESEDFVDYYCLQYAGSWTFGGGTKLEIK
notes: also called chimeric antibody of mab108
B15 gave a Kd of 365 pM, a koff of 5.82e-05 s⁻¹ and a kon of 160000 M⁻¹ s⁻¹.

B16: Hab108.33 (antibody, V domains shown)
VH: EVTLKESGPVLVKPTETLTLTCTVSGFSLSSYGIQWVRQPPGKLLEWLGVIWSGGSADYNAAFISRLTISKDTSKSQVVLTMTNMDPVDTATYYCAGQYGSVWGQGTLVTVSS
VL: DIQMTQSPSSLSASVGDRVTITCRASQDIGDRLNWLQQKPGGAIKRLIYATSSLDSGVPSRFSGSGSGTEYTLTISSLQPEDFATYYCLQYAGSWTFGGGTKVEIK
notes: VL3 + VH3; full-length antibody
Molecule B16 gave a Kd of 481 pM, a koff of 0.000123 s⁻¹ and an association rate constant (kon) of 255000 M⁻¹ s⁻¹.

B17: Hab108.35 (antibody, V domains shown)
VH: B16 VH with S30K
VL: B16 VL
notes: VL3 + VH5; full-length antibody
B17 gave a dissociation constant Kd of 280 pM, a koff of 8.09e-05 s⁻¹ and an on-rate constant (kon) of 290000 M⁻¹ s⁻¹.

B18: Hab108.45 (antibody, V domains shown)
VH: B16 VH with S30K
VL: B16 VL with T69S, T85D
notes: VL4 + VH5; full-length antibody
Turning to B18, the Kd came to 253 pM, the koff was 7.38e-05 s⁻¹ and the on-rate (kon) is 292000 M⁻¹ s⁻¹.

B19: Hab108.34 (antibody, V domains shown)
VH: B16 VH with E6Q, V10G, L44G
VL: B16 VL
notes: VL3 + VH4; full-length antibody
With B19, binding was characterised by a dissociation constant (Kd) of 999 pM, the koff was found to be 0.000106 s⁻¹ and the kon is 106000 M⁻¹ s⁻¹.

B20: Hab108.52 (antibody, V domains shown)
VH: B16 VH with V37I, G49A
VL: B16 VL with G42K, S60K
notes: VL5 + VH2; full-length antibody
In the case of B20, the affinity, expressed as Kd, was 930 pM; the koff amounted to 0.000241 s⁻¹; the kon came to 260000 M⁻¹ s⁻¹.

B21: Hab108.53 (antibody, V domains shown)
VH: B16 VH
VL: B16 VL with G42K, S60K
notes: VL5 + VH3; full-length antibody
B21: the affinity, expressed as Kd, was 609 pM; the koff came to 0.000156 s⁻¹; the kon came to 257000 M⁻¹ s⁻¹.

B22: Hab108.15 (antibody, V domains shown)
VH: B16 VH with S30K
VL: B16 VL with L36Y, G42K, I44P, Y71F
notes: VL1 + VH5; full-length antibody
In turn, B22 came in with a Kd of 485 pM, a koff of 0.000121 s⁻¹ and a kon of 249000 M⁻¹ s⁻¹.

B23: Hab108.23 (antibody, V domains shown)
VH: B16 VH
VL: B16 VL with G42K
notes: VL2 + VH3; full-length antibody
For the molecule B23, the Kd turned out to be 913 pM, the koff came out at 0.000187 s⁻¹ and the kon is 205000 M⁻¹ s⁻¹.

B24: Hab108.25 (antibody, V domains shown)
VH: B16 VH with S30K
VL: B16 VL with G42K
notes: VL2 + VH5; full-length antibody
With B24, the Kd was determined as 349 pM, the koff came out at 0.000101 s⁻¹ and the kon was found to be 290000 M⁻¹ s⁻¹.

B25: CH110 (antibody, V domains shown)
VH: QVQLQQSGAELARPGASVQMSCKASGYIFTSYTMHWVKQRPGQGLEWIGYINPNSFYIEYNQKFKDKATLTADTSSSTAYMQLSSLTSEDSAVYYCARGDYDLFYDMDNWGQGTSVTVSS
VL: DIQMTQSPSSLSASLGERVSLTCRASQDIGNSLNWLQQEPDGTIKRLIYATFRLDSGVPKRFSGSRSGSDYSLTISSLESEDFVDYYCQQYASFPWTFGGGTKLEIK
notes: also called chimeric antibody of mab110
In turn, B25 yielded a Kd of 265 pM, a koff of 0.000147 s⁻¹ and an on-rate constant (kon) of 556000 M⁻¹ s⁻¹.

B26: CH127 (antibody, V domains shown)
VH: EVQLQQSGPELVKPGESVKISCKASGYSFTAYFMNWVMQSHRKSLEWIGRIYHNNGDTFYSQKFKGKATLTVDKSSNTVHMELRSLTSEDSAVYFCATSYVGDWGQGTTLTVSS
VL: B25 VL with N31D, E39A, I44L, F52S, R53S, K60R, Q89L
notes: also called chimeric antibody of mab127
Regarding B26, the Kd was 139 pM, the koff was found to be 3.31e-05 s⁻¹ and the on-rate (kon) is 239000 M⁻¹ s⁻¹.

The values above are taken from patent US20220220218A1 (JIANGSU HENGRUI MEDICINE, published 2022).
